This passage reports reverse-splicing fitness results from the RNAGym collection of RNA variant scans (doi:10.1093/molbev/msab373).

B1: Azoarcus group I ribozyme (parent)
chain: GUGCCUUGCGCCGGGAAACCACGCAAGGGAUGGUGUCAAAUUCGGCGAAACCUAAGCGCCCGCCCGGGCGUAUGGCAACGCCGAGCCAAGCUUCGGCGCCUGCGCCGAUGAAGGUGUAGAGACUAGACGGCACCCACCUAAGGCAAACGCUAUGGUGAAGGCAUAGUCCAGGGAGUGGCGAAAGUCACACAAACCGG

Variants of B1 are the subject of this data set. The experiment in a line: reverse-splicing fitness (ratio to wild type); higher = more active; in vitro selection; Mg2+ level not given. Summed up:
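An in vitro group I ribozyme library with randomized positions was T7-transcribed and gel-purified. In triplicate, 10 pmol RNA in EPPS pH 7.5 was reacted with 50 pmoles of a 30-nt RNA substrate for 1 h at 37 °C across several added MgCl2 levels (1–48 mM), then stopped with EDTA. Products were reverse transcribed from a substrate-complementary primer, PCR-amplified and sequenced (HiSeq 4000). Fitness is a variant's read proportion after selection over that before, normalised to wild type.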
C82U A111C A120C C150U C169U U176G: the reverse-splicing fitness is 0.00584.

Regarding C82U A111C A120C C150U C169U U176A, the reverse-splicing fitness was determined as 0.0178.

Turning to C82U A111C A120C C150U C169U U176C, the reverse-splicing fitness is 0.0196.

Consider C82U A111C A120C A145U C150U C169A, for which the reverse-splicing fitness is 0.00892.

As to C82U A111C A120C A145U C150U C169G, the reverse-splicing fitness came to 0.00745.

Turning to C82U A111C A120C A145U C150U C169U, the reverse-splicing fitness amounted to 0.0107.

Turning to C82U A111C A120C C150A C169A U176A, the reverse-splicing fitness was 0.0186.

With C82U A111C A120C C150A C169A U176G, the reverse-splicing fitness turned out to be 0.00712.

Turning to C82U A111C A120C C150A C169A U176C, the reverse-splicing fitness turned out to be 0.0136.

C82U A111C A120C C150U C169A U176C: the reverse-splicing fitness came to 0.0151.

Regarding C82U A111C A120C C150U C169A U176G, the reverse-splicing fitness turned out to be 0.00672.

Regarding C82U A111C A120C C150U C169A U176A, the reverse-splicing fitness amounted to 0.0151.

Consider C82U A111C A120C A145U C150U C169G U176A, for which the reverse-splicing fitness stood at 0.0126.

For the variant C82U A111C A120C A145U C150U C169G U176G, the reverse-splicing fitness was found to be 0.00521.

As to C82U A111C A120C A145U C150U C169G U176C, the reverse-splicing fitness stood at 0.0142.

On to C82U A111C A120C A145U U176C, for which the reverse-splicing fitness is 0.0181.

For the variant C82U A111C A120C A145U U176A, the reverse-splicing fitness was determined as 0.0118.

Take C82U A111C A120C A145U U176G: the reverse-splicing fitness is 0.00547.

Turning to C82U A111C A120G, the reverse-splicing fitness stood at 0.0151.

Regarding C82U A111C A120C C150U U176G, the reverse-splicing fitness came out at 0.00627.

As for C82U A111C A120C C150U U176A, the reverse-splicing fitness came to 0.00888.

In the case of C82U A111C A120C C150U U176C, the reverse-splicing fitness amounted to 0.0168.

Turning to C82U A111C A120G A145C C150A C169U U176C, the reverse-splicing fitness turned out to be 0.00704.

Consider C82U A111C A120G A145C C150A C169U U176G, for which the reverse-splicing fitness was 0.00441.

For C82U A111C A120G A145C C150A C169U U176A, the reverse-splicing fitness amounted to 0.0166.

In the case of C82U A111C A120C A145U C150G C169G U176G, the reverse-splicing fitness amounted to 0.00558.

With C82U A111C A120C A145U C150G C169G U176C, the reverse-splicing fitness is 0.0066.

As for C82U A111C A120C A145U C150G C169G U176A, the reverse-splicing fitness came to 0.00759.

With C82U A111C A120C A145U C169G U176A, the reverse-splicing fitness is 0.013.

Regarding C82U A111C A120C A145U C169G U176C, the reverse-splicing fitness was 0.0132.

For C82U A111C A120C A145U C169G U176G, the reverse-splicing fitness turned out to be 0.00515.

With C82U A111C A120G A145C C150G C169A U176A, the reverse-splicing fitness worked out at 0.00754.

Turning to C82U A111C A120G A145C C150G C169A U176G, the reverse-splicing fitness stood at 0.00441.

As for C82U A111C A120G A145C C150G C169A U176C, the reverse-splicing fitness came to 0.00509.

As to C82U A111C A120C C169U U176C, the reverse-splicing fitness amounted to 0.0145.

Take C82U A111C A120C C169U U176A: the reverse-splicing fitness was 0.018.

Regarding C82U A111C A120C C169U U176G, the reverse-splicing fitness came out at 0.00583.

As for C82U A111C A120C C150G U176A, the reverse-splicing fitness came out at 0.00528.

As to C82U A111C A120C C150G U176G, the reverse-splicing fitness came out at 0.00336.

Consider C82U A111C A120C C150G U176C, for which the reverse-splicing fitness amounted to 0.00787.

On to C82U A111C A120C A145G C169G, for which the reverse-splicing fitness was determined as 0.00841.

C82U A111C A120C A145G C169U: the reverse-splicing fitness worked out at 0.0129.

With C82U A111C A120C A145G U176A, the reverse-splicing fitness was determined as 0.0134.

For the variant C82U A111C A120C A145G U176G, the reverse-splicing fitness came to 0.00588.

In the case of C82U A111C A120C A145G U176C, the reverse-splicing fitness came to 0.0243.

For the variant C82U A111C A120G A145C C150A C169A U176C, the reverse-splicing fitness is 0.00587.

In the case of C82U A111C A120G A145C C150A C169A U176A, the reverse-splicing fitness was 0.011.

Take C82U A111C A120G A145C C150A C169A U176G: the reverse-splicing fitness stood at 0.00467.

C82U A111C A120C C150G C169U U176G: the reverse-splicing fitness amounted to 0.00565.

Take C82U A111C A120C C150G C169U U176C: the reverse-splicing fitness worked out at 0.0134.

For the variant C82U A111C A120C C150G C169U U176A, the reverse-splicing fitness stood at 0.00808.

As for C82U A111C A120C A145G C169G U176G, the reverse-splicing fitness stood at 0.0058.

On to C82U A111C A120C A145G C169G U176A, for which the reverse-splicing fitness worked out at 0.0195.

Consider C82U A111C A120C A145G C169G U176C, for which the reverse-splicing fitness was 0.0254.

For the variant C82U A111C A120G A145C C150A, the reverse-splicing fitness stood at 0.00617.

C82U A111C A120G A145C C150G: the reverse-splicing fitness came out at 0.007.

Consider C82U A111C A120C A145U C169A U176A, for which the reverse-splicing fitness turned out to be 0.0107.

Regarding C82U A111C A120C A145U C169A U176G, the reverse-splicing fitness stood at 0.00532.

Turning to C82U A111C A120C A145U C169A U176C, the reverse-splicing fitness came to 0.0103.

For the variant C82U A111C A120C C150A C169G U176C, the reverse-splicing fitness was determined as 0.0184.

For C82U A111C A120C C150A C169G U176A, the reverse-splicing fitness turned out to be 0.0161.

With C82U A111C A120C C150A C169G U176G, the reverse-splicing fitness stood at 0.00704.

As to C82U A111C A120C C150A C169U U176A, the reverse-splicing fitness amounted to 0.0178.

In the case of C82U A111C A120C C150A C169U U176C, the reverse-splicing fitness is 0.0181.

With C82U A111C A120C C150A C169U U176G, the reverse-splicing fitness is 0.00677.

On to C82U A111C A120G A145C C150A U176A, for which the reverse-splicing fitness was 0.00897.

As for C82U A111C A120G A145C C150A U176C, the reverse-splicing fitness was 0.00967.

In the case of C82U A111C A120G A145C C150A U176G, the reverse-splicing fitness came out at 0.00348.

For the variant C82U A111C A120C A145U C150G C169A U176C, the reverse-splicing fitness amounted to 0.00938.

For C82U A111C A120C A145U C150G C169A U176A, the reverse-splicing fitness was found to be 0.00888.

As to C82U A111C A120C A145U C150G C169A U176G, the reverse-splicing fitness came to 0.00632.

As to C82U A111C A120C A145U C150A C169G U176A, the reverse-splicing fitness turned out to be 0.0132.

With C82U A111C A120C A145U C150A C169G U176C, the reverse-splicing fitness turned out to be 0.015.

Turning to C82U A111C A120C A145U C150A C169G U176G, the reverse-splicing fitness was found to be 0.00587.

For the variant C82U A111C A120C A145G C169A U176G, the reverse-splicing fitness stood at 0.00658.

As to C82U A111C A120C A145G C169A U176C, the reverse-splicing fitness was determined as 0.0232.

Consider C82U A111C A120C C150G C169G, for which the reverse-splicing fitness was 0.00626.

Take C82U A111C A120C C150G C169A: the reverse-splicing fitness amounted to 0.00879.

Take C82U A111C A120C C150G C169U: the reverse-splicing fitness amounted to 0.00884.

Consider C82U A111C A120C C169G, for which the reverse-splicing fitness was 0.00813.

In the case of C82U A111C A120C C169A, the reverse-splicing fitness came to 0.00788.

Consider C82U A111C A120C C169U, for which the reverse-splicing fitness was 0.0127.

As to C82U A111C A120G A145C C150A C169G U176C, the reverse-splicing fitness amounted to 0.0127.
